Data on two molecules can be found in article PMC10877727, “Effect of TraN key residues involved in DNA binding on pIP501 transfer rates in Enterococcus faecalis”.

Common to all, as to settings: protein: recombinant; tags: N-terminal 7xHis (pQTEV); blunt
The target of one series is TraN_R23A-N24A-Q28A (Enterococcus faecalis plasmid pIP501, UniProt Q7BVV5 1-122, R23A;N24A;Q28A). The series is described as follows: MST; MST in PBS-T (pH and temperature not stated); 50 nM RED-tris-NTA labelled His-protein, dsDNA 0.781 nM to 12.8 uM; Monolith NT.115, 60% LED and MST power.
Series [1] deals with T1, TraN_G100A-K101A (Enterococcus faecalis plasmid pIP501, UniProt Q7BVV5 1-122, G100A;K101A). The series is described as above.
Series [2] deals with T2, TraN_H82A-R86A (Enterococcus faecalis plasmid pIP501, UniProt Q7BVV5 1-122, H82A;R86A). The description is as above.
For a further series, the target named is TraN_G47A-G48A (Enterococcus faecalis plasmid pIP501, UniProt Q7BVV5 1-122, G47A;G48A). The description is as above.
For the next series, the target named is TraN (Enterococcus faecalis plasmid pIP501, UniProt Q7BVV5 1-122). The series is described as above.
The target of series [3] is T1, TraN_G100A-K101A. Briefly: MST; no sigmoidal fit possible up to 12.8 uM DNA; extremely low affinity; MST in PBS-T (pH and temperature not stated); 50 nM RED-tris-NTA labelled His-protein, dsDNA 0.781 nM to 12.8 uM; Monolith NT.115, 60% LED and MST power.
Series [4] addresses T2, TraN_H82A-R86A. The description is as above.

B1: oBS 34-mer (original TraN binding site) (dsDNA)
DNA 1: CGGAAATGTCAGGTTAAACATATTTACTTTTATA
DNA 2: TATAAAAGTAAATATGTTTAACCTGACATTTCCG
As to B1, the Kd in the series with TraN_R23A-N24A-Q28A came out at 154 ± 19.5 nM; in the series with TraN_G100A-K101A [1] it was 406 ± 45.5 nM; in the series with TraN_H82A-R86A [2], 425 ± 102 nM; with TraN_G47A-G48A, 48.8 ± 9.75 nM; with TraN, 11.7 ± 2.65 nM.

B2: random DNA 34-mer (dsDNA)
DNA 1: AGGGCGCACTTATACGCAGTAACTTCGTTACTTC
DNA 2: GAAGTAACGAAGTTACTGCGTATAAGTGCGCCCT
Take B2: the binding result with TraN_G100A-K101A [3] and in the series with TraN_H82A-R86A [4] was “no binding” each time.
